Measurements: article doi:10.64898/2025.12.16.694598

Legend:
Experiment in all cases: BLI
[1] = biological target: Recombinant histidine-tagged Ewing Sarcoma Breakpoint Region 1 (EWSR1) protein (UniProt Q01844)
CHIKV nsP2 = CHIKV nsP2 (Chikungunya virus; strain of the nsP2 …, UniProt Q8JUX6 536-1333)
EWSR1 = EWSR1 (UniProt Q01844 1-656)
EWSR1, sequence (Q01844 whole entry): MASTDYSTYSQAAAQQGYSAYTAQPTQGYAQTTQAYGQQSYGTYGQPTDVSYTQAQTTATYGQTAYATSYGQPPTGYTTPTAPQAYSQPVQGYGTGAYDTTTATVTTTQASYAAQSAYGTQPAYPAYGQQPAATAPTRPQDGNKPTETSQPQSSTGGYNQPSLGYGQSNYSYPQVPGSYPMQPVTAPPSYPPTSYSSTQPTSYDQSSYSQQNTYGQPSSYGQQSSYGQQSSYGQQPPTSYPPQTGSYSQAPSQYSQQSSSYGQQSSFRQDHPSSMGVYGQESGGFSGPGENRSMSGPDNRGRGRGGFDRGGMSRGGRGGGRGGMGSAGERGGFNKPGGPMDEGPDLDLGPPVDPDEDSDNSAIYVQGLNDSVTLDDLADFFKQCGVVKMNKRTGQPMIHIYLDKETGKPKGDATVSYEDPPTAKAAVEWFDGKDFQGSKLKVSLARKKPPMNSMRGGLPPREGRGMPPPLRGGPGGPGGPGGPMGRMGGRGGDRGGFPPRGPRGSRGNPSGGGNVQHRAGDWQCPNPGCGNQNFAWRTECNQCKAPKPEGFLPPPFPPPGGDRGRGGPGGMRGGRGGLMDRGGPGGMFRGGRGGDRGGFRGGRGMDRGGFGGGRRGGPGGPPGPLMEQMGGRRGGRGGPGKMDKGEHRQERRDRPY

Chikungunya virus non-structural protein 2 (CHIKV nsP2), full-length recombinant, sequence (Q8JUX6 536-1333): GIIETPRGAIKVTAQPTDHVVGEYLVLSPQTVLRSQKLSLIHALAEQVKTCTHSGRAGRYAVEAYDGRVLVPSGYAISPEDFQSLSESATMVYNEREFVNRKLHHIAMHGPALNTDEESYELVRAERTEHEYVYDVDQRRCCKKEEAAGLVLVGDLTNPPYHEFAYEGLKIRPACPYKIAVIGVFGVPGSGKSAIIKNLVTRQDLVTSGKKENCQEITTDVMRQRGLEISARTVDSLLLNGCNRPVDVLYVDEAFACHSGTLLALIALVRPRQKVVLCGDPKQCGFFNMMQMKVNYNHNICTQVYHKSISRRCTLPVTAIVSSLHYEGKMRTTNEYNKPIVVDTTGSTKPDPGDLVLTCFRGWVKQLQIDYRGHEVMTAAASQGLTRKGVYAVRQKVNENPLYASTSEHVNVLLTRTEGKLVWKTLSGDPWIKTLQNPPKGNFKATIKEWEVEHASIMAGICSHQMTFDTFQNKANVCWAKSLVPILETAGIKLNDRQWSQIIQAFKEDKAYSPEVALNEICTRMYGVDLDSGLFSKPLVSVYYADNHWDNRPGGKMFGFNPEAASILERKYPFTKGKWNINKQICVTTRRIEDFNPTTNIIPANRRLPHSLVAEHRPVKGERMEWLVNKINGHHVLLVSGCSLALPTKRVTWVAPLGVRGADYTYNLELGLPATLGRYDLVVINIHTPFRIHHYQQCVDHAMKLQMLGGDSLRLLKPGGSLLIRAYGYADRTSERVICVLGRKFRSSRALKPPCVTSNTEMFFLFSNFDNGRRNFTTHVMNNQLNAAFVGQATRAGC
CHIKV nsP2, sequence (Q8JUX6 536-1333): as above
Recombinant histidine-tagged Ewing Sarcoma Breakpoint Region 1 (EWSR1) protein, sequence (Q01844 whole entry): as the sequence (Q01844 whole entry) above

| Molecule | Kd [1] | Kd (CHIKV nsP2) | Kd (EWSR1) |
| --- | --- | --- | --- |
| Chikungunya virus non-structural protein 2 (CHIKV nsP2), full-length recombinant (from UniProt Q8JUX6) (enzyme) | 716 nM |  |  |
| CCGAACCCACAGGGACGUAGGAGAUGUUAUUUUGUUUUUAAUAUUUC (ssRNA) [3NCR48] |  | 92.9 ± 1.6 nM | 91.4 ± 0.37 nM |
